Molecular target: the molecule itself
Assay: crystal structure

B1: Histidine triad nucleotide-binding protein (HINT) from Candida albicans (enzyme, UniProt Q59WG0 1-152, looked up)
chain: MASHASCIFCKIIKGEIPSFKLIETAKTYSFLDIQPIAEAHVLIIPKHHGAKLHNIPDDYLSDILPVVKKLTKVLKLDENNTPEGEGYNVLQNNGRIAHQVVDHVHFHLIPKKDEATGLGVGWPAEATDFDKLGKLHEKLKEELAKVDNEKL
**Q.** B1 was tested. Which “stoichiometry N” value did it give?
**A.** Its value is 2.

Reference: paper PMC6354057 (Molecules and Cells, 2019)
